The values below come from paper PMC6854080, “Increased Mosquito Midgut Infection by Dengue Virus Recruitment of Plasmin Is Blocked by an Endogenous Kazal-type Inhibitor” (iScience, 2019).

The target in this assay is T1, recombinant AaTI (Aedes aegypti Kazal-type serine protease inhibitor) (Aedes aegypti, UniProt Q177W0 23-91).
T1 construct: recombinant protein of 9.85 kDa inclusive of His-tag; also called rAaTI; wild-type rAaTI; source: bacterial system, purified
T1 sequence (looked up): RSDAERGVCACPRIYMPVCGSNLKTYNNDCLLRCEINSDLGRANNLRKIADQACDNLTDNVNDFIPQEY
Nature of the assay: BLI; rAaTI-preloaded biosensors immersed into plasmin solutions of different concentrations; association and dissociation curves fitted globally to 1:1 kinetics. To be noted: both partners purified. In general terms: Biolayer interferometry detects binding as a change in optical thickness at a sensor tip.

B1: human plasmin (enzyme)
chain 1: KVYLSECKTGNGKNYRGTMSKTKNGITCQKWSSTSPHRPRFSPATHPSEGLEENYCRNPDNDPQGPWCYTTDPEKRYDYCDILECEEECMHCSGENYDGKISKTMSGLECQAWDSQSPHAHGYIPSKFPNKNLKKNYCRNPDRELRPWCFTTDPNKRWELCDIPRCTTPPPSSGPTYQCLKGTGENYRGNVAVTVSGHTCQHWSAQTPHTHNRTPENFPCKNLDENYCRNPDGKRAPWCHTTNSQVRWEYCKIPSCDSSPVSTEQLAPTAPPELTPVVQDCYHGDGQSYRGTSSTTTTGKKCQSWSSMTPHRHQKTPENYPNAGLTMNYCRNPDADKGPWCFTTDPSVRWEYCNLKKCSGTEASVVAPPPVVLLPDVETPSEEDCMFGNGKGYRGKRATTVTGTPCQDWAAQEPHRHSIFTPETNPRAGLEKNYCRNPDGDVGGPWCYTTNPRKLYDYCDVPQCAAPSFDCGKPQVEPKKCPGR
chain 2: VVGGCVAHPHSWPWQVSLRTRFGMHFCGGTLISPEWVLTAAHCLEKSPRPSSYKVILGAHQEVNLEPHVQEIEVSRLFLEPTRKDIALLKLSSPAVITDKVIPACLPSPNYVVADRTECFITGWGETQGTFGAGLLKEAQLPVIENKVCNRYEFLNGRVQSTELCAGHLAGGTDSCQGDSGGPLVCFEKDKYILQGVTSWGLGCARPNKPGVYVRVSRFVTWIEGVMRNN
modifications: active two-chain plasmin (Lys-plasmin limits from the UniProt chain features; the paper prints none), heavy and light chains joined by interchain disulfides; natural glycosylation
As usually defined, the Kd is a measure of binding affinity in units of concentration. For B1, the Kd amounted to 62.8 nM.
